One may read the stoichiometry N as a count of units in the complex or per binding partner.

This assay concerns the target MLucV (pTriEx-mTFP1(cp175)-Luciferase-Venus(cp173)), purified reporter protein (firefly) [luciferase: P08659]. The assay can be described thus: SEC-RALS; UMLucV (urea pre-aggregated MLucV), 1 µM, 300 µl on Superdex-200 increase; similar size profile up to 2,000 nM; oligomer of misfolded protomers.

“MLucV (pTriEx-mTFP1(cp175)-Luciferase-Venus(cp173)), purified reporter protein (from UniProt P08659 1-544)” showed a stoichiometry N of 12.
